Laboratory results reported in patent US20250154198A1, “PEPTIDE INHIBITORS OF INTERLEUKIN-23 RECEPTOR” (Zealand Pharma A/S, priority 2021, published 2025).
Where two headings read alike, the source gives them in different places. *1 amine or outer side, *2 acyl side, *3 side chain or, on linkers, in order; H or OH if unused. Bridges are numbered along the chain shown (N, C = ends). Primed or numbered codes have the meaning given here. Where no end group is shown, it is not given here. [ ]: non-standard residue; d: D form. 4‑Aminomethyl‑phenylacetyl = 4-aminomethyl-phenylacetyl unit, its amine closes the lactam, O=C(Cc1ccc(CN[*:1])cc1)[*:2]; 1,3‑dibromopropan‑2‑one = linker (CAS 816-39-7) joining two Cys as 1,3-dithio-propan-2-one bridge -SCH2C(=O)CH2S-; 1,3‑dibromopropan‑2‑one(3) = linker giving 1,3-dithio-propan-2-one bridge -SCH2C(=O)CH2S- between Cys; 4‑Aminomethyl‑phenylacetyl″ = N-terminal cap residue, O=C(Cc1ccc(CN[*:1])cc1)[*:2]; 2Nal = N[C@@H](Cc1ccc2ccccc2c1)C(=O)O; AEF = NCCOc1ccc(C[C@H](N)C(=O)O)cc1; 3Pal = N[C@@H](Cc1cccnc1)C(=O)O; αMeL = CC(C)C[C@](C)(N)C(=O)O; CH2COCH2 = O=C(C[*:1])C[*:2]; 3Amb = NCc1cccc(C(=O)O)c1; Dab = NCC[C@H](N)C(=O)O

T1: Nluc-IL23R fusion protein (human, UniProt Q5VWK5 22-629)
T1 construct: range 22-629; Stably expressed in HEK293 cells; also called hIL-23R; human IL-23R fused to a Nanoluc luciferase enzyme; not shown: Nanoluc luciferase (Promega N1371 plasmid) at the N-terminus
T1 sequence (looked up): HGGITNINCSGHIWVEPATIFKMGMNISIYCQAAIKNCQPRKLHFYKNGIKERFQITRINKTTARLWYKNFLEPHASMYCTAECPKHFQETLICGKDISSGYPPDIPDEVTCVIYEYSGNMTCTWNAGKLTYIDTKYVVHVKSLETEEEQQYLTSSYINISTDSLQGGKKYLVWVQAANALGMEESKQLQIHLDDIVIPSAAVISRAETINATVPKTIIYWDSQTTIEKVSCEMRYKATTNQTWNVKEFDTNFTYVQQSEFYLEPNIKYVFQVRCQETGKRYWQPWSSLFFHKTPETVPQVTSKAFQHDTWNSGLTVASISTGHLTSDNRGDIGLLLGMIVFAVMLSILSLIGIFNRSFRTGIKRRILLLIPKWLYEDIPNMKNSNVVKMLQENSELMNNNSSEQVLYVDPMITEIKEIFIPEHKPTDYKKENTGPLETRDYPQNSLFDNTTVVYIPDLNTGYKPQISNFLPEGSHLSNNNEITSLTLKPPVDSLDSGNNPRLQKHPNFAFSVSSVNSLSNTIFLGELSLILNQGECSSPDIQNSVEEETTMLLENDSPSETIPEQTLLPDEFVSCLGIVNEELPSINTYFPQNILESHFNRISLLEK

T2: human IL-23R endogenously expressed on DB cells (CRL-2289) (human, UniProt Q5VWK5 24-629)
T2 sequence (looked up): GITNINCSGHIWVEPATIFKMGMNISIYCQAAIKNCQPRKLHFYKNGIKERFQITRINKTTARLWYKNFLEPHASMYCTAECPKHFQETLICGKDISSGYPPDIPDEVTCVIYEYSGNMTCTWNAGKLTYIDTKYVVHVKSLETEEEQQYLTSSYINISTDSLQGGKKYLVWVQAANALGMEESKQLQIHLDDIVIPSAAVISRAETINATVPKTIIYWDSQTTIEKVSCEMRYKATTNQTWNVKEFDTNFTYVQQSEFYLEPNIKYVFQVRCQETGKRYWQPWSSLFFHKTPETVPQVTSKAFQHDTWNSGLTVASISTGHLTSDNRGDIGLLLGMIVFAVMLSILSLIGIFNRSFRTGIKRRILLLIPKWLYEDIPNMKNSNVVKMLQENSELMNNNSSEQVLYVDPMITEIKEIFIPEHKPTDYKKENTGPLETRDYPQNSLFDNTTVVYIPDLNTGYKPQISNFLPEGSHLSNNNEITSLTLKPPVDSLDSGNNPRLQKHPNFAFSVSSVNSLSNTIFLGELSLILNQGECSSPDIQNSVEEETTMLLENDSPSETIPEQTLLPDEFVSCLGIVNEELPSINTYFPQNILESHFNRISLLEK


Experiments:
[1] = molecular target: T1, Nluc-IL23R fusion protein; assay: BRET displacement of TAMRA-labelled peptide, Nluc-IL23R membranes
[2] = molecular target: T2, human IL-23R endogenously expressed on …; assay: cell-based or functional assay
[3] = molecular target: T2, human IL-23R endogenously expressed on …; assay: cell-based or functional assay; remark: listed apart in the source
[4] = molecular target: T2, human IL-23R endogenously expressed on …; assay: cell-based or functional assay; remark: listed apart in the source
[5] = molecular target: T2, human IL-23R endogenously expressed on …; assay: cell-based or functional assay; remark: listed apart in the source
[6] = molecular target: T2, human IL-23R endogenously expressed on …; assay: cell-based or functional assay; remark: listed apart in the source

Binder	Ki [1] [nM]	IC50 (pSTAT3) [2]	also measured
[4‑Aminomethyl‑phenylacetyl]SEWQ[Dab][AEF][2Nal][αMeL]E[Dab]-NH2 (lactam N-10, 3-6) [Compound 125]	0.599	21.2 nM	
DESCXQCWWLKR (HELM PEPTIDE1{[ac].D.E.S.C.[Cc1cccc2c(C[C@H](N[*:1])C(=O)[*:2])c[nH]c12].Q.C.W.W.L.K.R.[am]}|CHEM1{[O=C(C[*:1])C[*:2]]}$PEPTIDE1,PEPTIDE1,3:R3-12:R3|PEPTIDE1,CHEM1,5:R3-1:R1|PEPTIDE1,CHEM1,8:R3-1:R2$$$V2.0; SMILES CC(=O)N[C@@H](CC(=O)O)C(=O)N[C@H]1CCC(=O)NCCCC[C@@H](C(=O)N[C@@H](CCCNC(=N)N)C(N)=O)NC(=O)[C@H](CC(C)C)NC(=O)[C@H](Cc2c[nH]c3ccccc23)NC(=O)[C@H](Cc2c[nH]c3ccccc23)NC(=O)[C@@H]2CSCC(=O)CSC[C@H](NC(=O)[C@H](CO)NC1=O)C(=O)N[C@@H](Cc1c[nH]c3c(C)cccc13)C(=O)N[C@@H](CCC(N)=O)C(=O)N2) [Compound 16]		461 nM	IC50 (pSTAT3) [3]: 461 nM
[4‑Aminomethyl‑phenylacetyl]SCWQC[AEF][2Nal][αMeL]E[Dab][3Pal]-NH2 (lactam N-10; linker 3-6 via 1,3‑dibromopropan‑2‑one(3)) [Compound 120]	0.00938	54.2 pM	
Ac-ESCWQCWWLKR-NH2 (lactam 1-10; linker 3-6 via 1,3‑dibromopropan‑2‑one) [Compound 10]		617 nM	IC50 (pSTAT3) [4]: 617 nM
Ac-KTCWQC[AEF][2Nal][αMeL]E[Dab][3Pal]-NH2 (lactam 1-10; linker 3-6 via 1,3‑dibromopropan‑2‑one(3)) [Compound 155]	0.00805	30.5 pM	
[4‑Aminomethyl‑phenylacetyl]SCWQC[AEF][2Nal][αMeL]ER-NH2 (lactam N-10; linker 3-6 via CH2COCH2; SMILES CC(C)C[C@]1(C)NC(=O)[C@H](Cc2ccc3ccccc3c2)NC(=O)[C@H](Cc2ccc(OCCN)cc2)NC(=O)[C@@H]2CSCC(=O)CSC[C@H](NC(=O)[C@H](CO)NC(=O)Cc3ccc(cc3)CNC(=O)CC[C@@H](C(=O)N[C@@H](CCCNC(=N)N)C(N)=O)NC1=O)C(=O)N[C@@H](Cc1c[nH]c3ccccc13)C(=O)N[C@@H](CCC(N)=O)C(=O)N2) [Compound 52]	0.0475	7.85 nM	
Ac-DKSCWQCWWLER-NH2 (lactam 2-11; linker 4-7 via 1,3‑dibromopropan‑2‑one) [Compound 7]		159 nM	IC50 (pSTAT3) [5]: 159 nM
[4‑Aminomethyl‑phenylacetyl]SEWQ[Dab][AEF][2Nal][αMeL]E-{NH‑3‑aminopropanoyl} (lactam N-10, 3-6) [Compound 137]	0.518	24.1 nM	
[4‑Aminomethyl‑phenylacetyl″]SEWQ[Dab][AEF][2Nal][αMeL]E[Dab][3Pal]-NH2 (lactam N-10, 3-6; SMILES CC(C)C[C@]1(C)NC(=O)[C@H](Cc2ccc3ccccc3c2)NC(=O)[C@H](Cc2ccc(OCCN)cc2)NC(=O)[C@@H]2CCNC(=O)CC[C@H](NC(=O)[C@H](CO)NC(=O)Cc3ccc(cc3)CNC(=O)CC[C@@H](C(=O)N[C@@H](CCN)C(=O)N[C@@H](Cc3cccnc3)C(N)=O)NC1=O)C(=O)N[C@@H](Cc1c[nH]c3ccccc13)C(=O)N[C@@H](CCC(N)=O)C(=O)N2) [Compound 122]	0.00541	27.7 pM	
[4‑Aminomethyl‑phenylacetyl]SCWQC[AEF][2Nal][αMeL]E[Dab]-NH2 (lactam (positions not given here); linker 3-6 via CH2COCH2; not fully specified (bridges); printed as [4-Aminomethyl-phenylacetyl](1c)*SC(2a)WQC(2a)[Y(2-aminoethoxy)][2-Nal][2-Me-Leu]E(1c)[Dab]-[NH2]) [Compound 82]	0.0665	11.1 nM	
[3Amb]SCWQC[AEF][2Nal][αMeL]ER[3Pal]-NH2 (lactam (positions not given here); linker 3-6 via CH2COCH2; not fully specified (bridges); printed as [(3-Aminomethyl)benzoyl](1c)*SC(2a)WQC(2a)[Y(2-aminoethoxy)][2-Nal][2-Me-Leu]E(1c)R[3-(3-Pyridyl)-Ala]-[NH2]) [Compound 78]	0.0205	0.132 nM	
Ac-DKSCWQCW[2Nal]LER-NH2 (lactam 2-11; bridge 4-7; not fully specified (bridges); printed as [Ac]-DK(1c)SC(2f)WQC(2f)W[2-Nal]LE(1c)R-[NH2]) [Compound 22]		> 1 µM	IC50 (pSTAT3) [6]: > 1 µM
[4‑Aminomethyl‑phenylacetyl]SCWQC[AEF][2Nal][αMeL]ES-NH2 (lactam (positions not given here); linker 3-6 via CH2COCH2; not fully specified (bridges); printed as [4-Aminomethyl-phenylacetyl](1c)*SC(2a)WQC(2a)[Y(2-aminoethoxy)][2-Nal][2-Me-Leu]E(1c)S-[NH2]) [Compound 81]	0.318	20.7 nM	
Ac-DKSCWQCW[2Nal]LER-NH2 (lactam 2-11; bridge 4-7; not fully specified (bridges); printed as [Ac]-DK(1c)SC(2e)WQC(2e)W[2-Nal]LE(1c)R-[NH2]) [Compound 21]		> 1 µM	IC50 (pSTAT3) [6]: > 1 µM
Ac-DKSCWQCW[2Nal]LER-NH2 (lactam 2-11; bridge 4-7; not fully specified (bridges); printed as [Ac]-DK(1c)SC(2d)WQC(2d)W[2-Nal]LE(1c)R-[NH2]) [Compound 20]		79.2 nM	IC50 (pSTAT3) [6]: 79.2 nM
[3Amb]SCWQC[AEF][2Nal][αMeL]E[dR]-NH2 (lactam N-10; linker 3-6 via CH2COCH2) [Compound 41]	2.31	29.4 nM	
[4‑Aminomethyl‑phenylacetyl]SCWQC[AEF][2Nal][αMeL]E[dR]-NH2 (lactam (positions not given here); linker 3-6 via CH2COCH2; not fully specified (bridges); printed as [4-Aminomethyl-phenylacetyl](1c)*SC(2a)WQC(2a)[Y(2-aminoethoxy)][2-Nal][2-Me-Leu]E(1c)[{d}R]-[NH2]) [Compound 80]	0.15	10.5 nM	
